Measurements taken from patent publication US20180327803A1.
Substitutions are numbered along the chain they refer to.

Key:
[1] = biological target: human IgG3 antibody (#I5654; Sigma-Aldrich) (human); assay: ELISA
[2] = biological target: human IgG1 antibody (#I5154; Sigma-Aldrich) (human); assay: ELISA
[3] = biological target: human serum-derived IgA polyclonal antibody (#I4036; Sigma-Aldrich) (human); assay: ELISA
[4] = biological target: human IgG4 antibody (#I4639; Sigma-Aldrich) (human); assay: ELISA
[5] = biological target: human IgG2 antibody (#I5404; Sigma-Aldrich) (human); assay: ELISA
[6] = biological target: human serum-derived IgA polyclonal antibody (#I4036; Sigma-Aldrich) (human); assay: SPR, lysate, human IgA chip
[7] = biological target: human serum-derived IgG polyclonal antibody (#I4506; Sigma-Aldrich) (human); assay: ELISA
[8] = biological target: human serum-derived IgG polyclonal antibody (#I4506; Sigma-Aldrich) (human); assay: SPR, lysate, human IgG chip
[9] = biological target: human IgG1 antibody (#I5154; Sigma-Aldrich) (human); assay: SPR, single cycle kinetics, IgG1 chip

B1: IgA R3-1 (scFv, not shown: small tags and cut ends)
scFv: QSVKESGGRLVTPGTPLTLTCTVSGIDLSSNAMSWVRQAPGEGLEWIGTISTVGKTYFASWAKGRFTISKTSTTVDLRITSPTTEDTATYFCATRYDSYGYAYNYWFGTLWGPGTLVTVTSGGGGSGGGGSGGGGSELDLTQTPPSVSGAVGGTVTIKCQASENINSELAWYQQKPGQRPKLLIYDASKLASGVPSRFSGSGSGTEYTLTISGMQCDDAATYYCQSTYYDGNYVYAFGGGTEVDVTRS
[1]
  OD: 3.02
[2]
  OD: 3.09
[3]
  OD: 3
[4]
  OD: 3.07
[5]
  OD: 3.07
[6]
  koff: 9.88e-05 s⁻¹

B2: R3-75 (scFv, not shown: small tags and cut ends)
scFv: B1 scFv
[1]
  OD: 3.12
[2]
  OD: 3.05
[7]
  OD: 3.01
[3]
  OD: 3.06
[4]
  OD: 3.11
[5]
  OD: 3.04
[8]
  koff: 0.000278 s⁻¹

B3: R3-26 (scFv, not shown: small tags and cut ends)
scFv: QEQLVESGGGLVKPGGTLTLTCTVSGIDLSSYAMSWVRQVPGKGLEWIGIIGSGGGTAYANWAKGRFTISKTSSTTVDLKMTSLTTEDTATYFCATDYGIYGYAYGHLWGPGTLVTVTSGGGGSGGGGSGGGGSELVMTQTASPVSAAVGGTVTIKCQASQSISTALAWYQQRPGQPPKLLIYDASTLASGVSSRFKGSGSGTEFTLTISDLECADAATYYCQTYFGSDTDNAFGEGTEVEITGS
[1]
  OD: 3.14
[2]
  OD: 3.1
[7]
  OD: 3.1
[4]
  OD: 3.16
[5]
  OD: 3.04
[8]
  koff: 0.000571 s⁻¹

B4: R3-75 rabbit-derived single-chain antibody-His (scFv)
scFv: QSVKESGGRLVTPGTPLTLTCTVSGIDLSSNAMSWVRQAPGEGLEWIGTISTVGKTYFASWAKGRFTISKTSTTVDLRITSPTTEDTATYFCATRYDSYGYAYNYWFGTLWGPGTLVTVTSGGGGSGGGGSGGGGSELDLTQTPPSVSGAVGGTVTIKCQASENINSELAWYQQKPGQRPKLLIYDASKLASGVPSRFSGSGSGTEYTLTISGMQCDDAATYYCQSTYYDGNYVYAFGGGTEVDVTRSHHHHHH
[9]
  Kd: 0.55 nM
  koff: 3.7e-05 s⁻¹
  kon: 67000 M⁻¹ s⁻¹

B5: R2-18 rabbit-derived single-chain antibody-His (scFv)
scFv: QSLEESGGRLVTPGTPLTLTCTVSGIDLSSNAMTWVRQAPGEGLEWIGTISTGGSTYFASWAKGRFTISKTSTTVDLKITSPTTEDTATYFCATRYDSYGYAYNYWFGTLWGPGTLVTVTSGGGGSGGGGSGGGGSELVMTQTAASVSEPVGGTVTIKCQASQNINNELAWYQQKPGQRPKLLIYDASKLASGVPSRFSGSGSGTEFTLTISGMQCDDAATYYCQSTYYDGNYVYAFGGGTEVDVKGSHHHHHH
[9]
  Kd: 4.8 nM
  koff: 0.00012 s⁻¹
  kon: 25000 M⁻¹ s⁻¹

B6: R3-23 (scFv, not shown: small tags and cut ends)
scFv: QSVKESEGRLVTPGTPLTLTCTVSGFSLSRYAVSWVRQAPGKGLEWIGIIGSGGSTSYATWARGRFTISKTSTTVDLKITSPTTEDTVTYFCGSYYDSHGYAYVSLWGPGTLVTVTSGGGGSGGGGSGGGGSELVLTQTPSPVSGAVGGTVTINCQASQSISTALAWYQQKPGQPPKLLIYSASTLASGVSSRFKGSGSGTGFTLTISDLECADAATYYCQSYYGSSSDNAFGGGTEVVIKRS
[1]
  OD: 3.02
[2]
  OD: 3.06
[7]
  OD: 3.04
[4]
  OD: 3.06
[5]
  OD: 3.06
[8]
  koff: 0.000408 s⁻¹

B7: IgA R3-18 (scFv, not shown: small tags and cut ends)
scFv: QSLEESGGRLVTPGTPLTLTCTVSGIDLSSNAMTWVRQAPGEGLEWIGTISTGGSTYFASWAKGRFTISKTSTTVDLKITSPTTEDTATYFCATRYDSYGYAYNYWFGTLWGPGTLVTVTSGGGGSGGGGSGGGGSELVMTQTAASVSEPVGGTVTIKCQASQNINNELAWYQQKPGQRPKLLIYDASKLASGVPSRFSGSGSGTEFTLTISGMQCDDAATYYCQSTYYDGNYVYAFGGGTEVDVKGS
[1]
  OD: 2.99
[2]
  OD: 3.09
[3]
  OD: 3.03
[4]
  OD: 3.08
[5]
  OD: 3.09
[6]
  koff: 0.000181 s⁻¹

B8: R3-8 (scFv, not shown: small tags and cut ends)
scFv: B7 scFv with K158N, N164S, N166S, N167D, K189D, M214V, T227A, N232R, D244E, K246T
[1]
  OD: 3.06
[2]
  OD: 3.03
[7]
  OD: 3.01
[3]
  OD: 3.06
[4]
  OD: 3.09
[5]
  OD: 3.02
[8]
  koff: 0.00088 s⁻¹

B9: R2-18 (scFv, not shown: small tags and cut ends)
scFv: B7 scFv
[1]
  OD: 3.08
[2]
  OD: 3.11
[3]
  OD: 3.11
[8]
  koff: 0.0008 s⁻¹

B10: R3-58 (scFv, not shown: small tags and cut ends)
scFv: QQQLMESGGRLVTPGGSLTLTCTVSGIDLNSYAMGWVRQAPGKGLEYIGIIRNSGNTYYASWAKGRFTISKTSSTTVDLKMTSLTTEDTATYFCARYSGDNGGALNLWGPGTLVTVTSGGGGSGGGGSGGGGSELVMTQTAASVSGPVGGTVTIKCQASEFIRNYLAWYQQKPGQPPKLLIYTTSNLASGVPSRFSGSGSGTEYTLTISDLECADAATYYCQNYYDISTYGNAFGGGTEVVVIKGS
[1]
  OD: 3.11
[2]
  OD: 3.14
[7]
  OD: 3.05
[4]
  OD: 3.17
[5]
  OD: 3.08
[8]
  koff: 0.000742 s⁻¹

B11: R2-16 rabbit-derived single-chain antibody-His (scFv)
scFv: QSVKESGGRLVTPGTPLTLTCTVSGFSLSSYAMGWVRQAPGKGLEYIGIISSSGSTYYASWAKGRFTISKTSTTVDLKITSPTTEDTATYFCARYSGDNGGALNLWGPGTLVTVTSGGGGSGGGGSGGGGSELDLTQTAASVSEPVGGTVTISCQSSQHIRSYLAWYQQKPGQPPKLLISAASTLASGVSSRFKGSGSGTEFTLTISDLECADAATYYCQRYYDIRNYGNGFGGGTEVEITGSHHHHHH
[9]
  Kd: 2.5 nM
  koff: 0.00032 s⁻¹
  kon: 130000 M⁻¹ s⁻¹

B12: R1-7 rabbit-derived single-chain antibody-His (scFv)
scFv: QSLEESGGRLVTPGTPLTLTCTVSGIDLRRYAMGWVRQAPGKGLQWIGIIASGNTDYASWAKGRFTISATSTTVDLKITSPTTEDTATYFCARYSGDNGGTLNLWGPGTLVTVTSGGGGSGGGGSGGGGSELVMTQTAASVSEPVGGTVTIKCQASQSISSYLAWYQQKPGQPPKLLIYAASNLASGVSSRFKGSGSGTEFTLTISDLECADAATYYCQSYYSISSYGNTFGGGTEVEITGSHHHHHH
[9]
  Kd: 24 nM
  koff: 0.0017 s⁻¹
  kon: 71000 M⁻¹ s⁻¹

B13: R3-23 rabbit-derived single-chain antibody-His (scFv)
scFv: QSVKESEGRLVTPGTPLTLTCTVSGFSLSRYAVSWVRQAPGKGLEWIGIIGSGGSTSYATWARGRFTISKTSTTVDLKITSPTTEDTVTYFCGSYYDSHGYAYVSLWGPGTLVTVTSGGGGSGGGGSGGGGSELVLTQTPSPVSGAVGGTVTINCQASQSISTALAWYQQKPGQPPKLLIYSASTLASGVSSRFKGSGSGTGFTLTISDLECADAATYYCQSYYGSSSDNAFGGGTEVVIKRSHHHHHH
[9]
  Kd: 11 nM
  koff: 0.00013 s⁻¹
  kon: 11000 M⁻¹ s⁻¹

B14: R1-27 (scFv, not shown: small tags and cut ends)
scFv: QQQLMESGGGLVTPGTPLTLTCTVSGIDLRRYAMGWVRQAPGKGLQWIGIIASGNTDYASWAKGRFTISATSTTVDLKITSSTTEDTATYFCARYSGDNGGTLNLWGPGTLATVTTGGGGSGGGGSGGGGSELVMTQTAASVSEPVGGTVTIKCQASEHIRNYLAWYQQKPGQPPKLLIYTTSNLASGVPSRFSGSGSGTEYTLTISDLECADAATYYCQNYYDISTYGNTFGGGTEVDVKGS
[1]
  OD: 3.08
[2]
  OD: 3.07
[8]
  koff: 0.000859 s⁻¹

B15: R1-7 (scFv, not shown: small tags and cut ends)
scFv: QSLEESGGRLVTPGTPLTLTCTVSGIDLRRYAMGWVRQAPGKGLQWIGIIASGNTDYASWAKGRFTISATSTTVDLKITSPTTEDTATYFCARYSGDNGGTLNLWGPGTLVTVTSGGGGSGGGGSGGGGSELVMTQTAASVSEPVGGTVTIKCQASQSISSYLAWYQQKPGQPPKLLIYAASNLASGVSSRFKGSGSGTEFTLTISDLECADAATYYCQSYYSISSYGNTFGGGTEVEITGS
[2]
  OD: 3.12
[8]
  koff: 0.00175 s⁻¹

B16: R2-16 (scFv, not shown: small tags and cut ends)
scFv: QSVKESGGRLVTPGTPLTLTCTVSGFSLSSYAMGWVRQAPGKGLEYIGIISSSGSTYYASWAKGRFTISKTSTTVDLKITSPTTEDTATYFCARYSGDNGGALNLWGPGTLVTVTSGGGGSGGGGSGGGGSELDLTQTAASVSEPVGGTVTISCQSSQHIRSYLAWYQQKPGQPPKLLISAASTLASGVSSRFKGSGSGTEFTLTISDLECADAATYYCQRYYDIRNYGNGFGGGTEVEITGS
[1]
  OD: 3.05
[2]
  OD: 3.12
[8]
  koff: 0.000838 s⁻¹

B17: R1-27 rabbit-derived single-chain antibody-His (scFv)
scFv: QQQLMESGGGLVTPGTPLTLTCTVSGIDLRRYAMGWVRQAPGKGLQWIGIIASGNTDYASWAKGRFTISATSTTVDLKITSSTTEDTATYFCARYSGDNGGTLNLWGPGTLATVTTGGGGSGGGGSGGGGSELVMTQTAASVSEPVGGTVTIKCQASEHIRNYLAWYQQKPGQPPKLLIYTTSNLASGVPSRFSGSGSGTEYTLTISDLECADAATYYCQNYYDISTYGNTFGGGTEVDVKGSHHHHHH
[9]
  Kd: 40 nM
  koff: 0.0004 s⁻¹
  kon: 9900 M⁻¹ s⁻¹
